Laboratory results published in patent US20130288274A1 (BIO RAD LABORATORIES, published 2013).
Positions count from the first letter of the chain named.

B1: classic D2 hexamer with His tag (His-tagged recombinant deamidated gliadin protein) (other)
chain: MRGSHHHHHHGSPEFQPEQPQQSFPEQERPFGGGGSQPEQPQQSFPEQERPFGGGGSQPEQPQQSFPEQERPFGGGGSQPEQPQQSFPEQERPFGGGGSQPEQPQQSFPEQERPFGGGGSQPEQPQQSFPEQERPF
notes: also called classic DGP; DGP hexamer
B2: lysine-containing D2 hexamer with His tag (His-tagged Recombinant Deamidated Gliadin Peptide with a lysine substituted for a glutamic acid residue at position … (other)
chain: B1 chain with E14K
notes: also called lysine-containing DGP; lysine-containing DGP hexamer

Target: the molecule itself
Assay: SDS-PAGE and size-exclusion chromatography; self-association
Procedure: The affinity purified protein was analyzed by SDS-PAGE gel electrophoresis (FIG. 1). The D2-hexamers that were further purified on the size-exclusion column as described above were analyzed by SDS-PAGE (FIG. 1). […] This aggregation of the hexamers is so strong that it is not dissociated under the denaturing conditions used in SDS-PAGE. Additionally, both hexamer proteins migrated at the position of about 45 kd in a size-exclusion chromatogram. Without being bound to a particular theory, the surprising tendency of the hexamers to aggregate to form a trimer of hexamers may contribute to the improved immunoreactivity of the D2 hexamer.

Row | Protein | binding result
1 | B1 | binds
2 | B2 | binds
